# Results from the supplement of paper PMC11246515.
# ± gives the standard deviation of the averaged measurements.
# Assay: total protein half-life in vivo (active degradation + dilution); higher = more stable protein
# [1] = E. coli NCM3722 delta-clpP, growth: N-lim chemostat, doubling time 6 h
# [2] = E. coli NCM3722 delta-hslV, growth: N-lim chemostat, doubling time 6 h
# [3] = E. coli NCM3722 delta-lon, growth: N-lim chemostat, doubling time 6 h
# [4] = E. coli NCM3722 delta-smpB, growth: N-lim chemostat, doubling time 6 h
# [5] = wild type E. coli NCM3722, growth: C-lim chemostat, doubling time 3 h
# [6] = wild type E. coli NCM3722, growth: C-lim chemostat, doubling time 6 h
# [7] = wild type E. coli NCM3722, growth: C-lim chemostat, doubling time 12 h
# [8] = wild type E. coli NCM3722, growth: N-lim chemostat, doubling time 6 h
# [9] = wild type E. coli NCM3722, growth: N-lim chemostat, doubling time 12 h
# [10] = wild type E. coli NCM3722, growth: P-lim chemostat, doubling time 6 h
# [11] = wild type E. coli NCM3722, growth: P-lim chemostat, doubling time 12 h
# [12] = E. coli NCM3722 delta-clpP delta-lon delta-hslV, growth: N-lim chemostat, doubling time 6 h
Sequence,total protein half-life in vivo [1] [h],total protein half-life in vivo [2] [h],total protein half-life in vivo [3] [h],total protein half-life in vivo [4] [h],total protein half-life in vivo [5] [h],total protein half-life in vivo [6] [h],total protein half-life in vivo [7] [h],total protein half-life in vivo [8] [h],total protein half-life in vivo [9] [h],total protein half-life in vivo [10] [h],total protein half-life in vivo [11] [h],total protein half-life in vivo [12] [h]
MTNNPPSAQIKPGEYGFPLKLKARYDNFIGGEWVAPADGEYYQNLTPVTGQLLCEVASSGKRDIDLALDAAHKVKDKWAHTSVQDRAAILFKIADRMEQNLELLATAETWDNGKPIRETSAADVPLAIDHFRYFASCIRAQEGGISEVDSETVAYHFHEPLGVVGQIIPWNFPLLMASWKMAPALAAGNCVVLKPARLTPLSVLLLMEIVGDLLPPGVVNVVNGAGGVIGEYLATSKRIAKVAFTGSTEVGQQIMQYATQNIIPVTLELGGKSPNIFFADVMDEEDAFFDKALEGFALFAFNQGEVCTCPSRALVQESIYERFMERAIRRVESIRSGNPLDSVTQMGAQVSHGQLETILNYIDIGKKEGADVLTGGRRKLLEGELKDGYYLEPTILFGQNNMRVFQEEIFGPVLAVTTFKTMEEALELANDTQYGLGAGVWSRNGNLAYKMGRGIQAGRVWTNCYHAYPAHAAFGGYKQSGIGRETHKMMLEHYQQTKCLLVSYSDKPLGLF,4.04 ± 0.7,2.42 ± 0.5,2.83 ± 0.035,2.42 ± 0.14,2.73 ± 0.41,5.1 ± 0.31,7.87 ± 0.019,2.77 ± 0.77,4.07 ± 0.55,3.08 ± 1.1,6.36 ± 0.73,
MLYVIYAQDKADSLEKRLSVRPAHLARLQLLHDEGRLLTAGPMPAVDSNDPGAAGFTGSTVIAEFESLEAAQAWADADPYVAAGVYEHVSVKPFKKVF [P0AB55],4.751 ± 0.018,4.51 ± 0.13,5.1 ± 0.41,5.34 ± 1,,4.96 ± 0.49,9.37,,7.02 ± 0.86,6,,5.05 ± 0.14
MSKIIATLYAVMDKRPLRALSFVMALLLAGCMFWDPSRFAAKTSELEIWHGLLLMWAVCAGVIHGVGFRPQKVLWQGIFCPLLADIVLIVGLIFFFF [P0AAV0],,,5.39,,,,,,,,,
MIPQISQAPGVVQLVLNFLQELEQQGFTGDTATSYADRLTMSTDNSIYQLLPDAVVFPRSTADVALIARLAAQERYSSLIFTPRGGGTGTNGQALNQGIIVDMSRHMNRIIEINPEEGWVRVEAGVIKDQLNQYLKPFGYFFAPELSTSNRATLGGMINTDASGQGSLVYGKTSDHVLGVRAVLLGGDILDTQPLPVELAETLGKSNTTIGRIYNTVYQRCRQQRQLIIDNFPKLNRFLTGYDLRHVFNDEMTEFDLTRILTGSEGTLAFITEARLDITRLPKVRRLVNVKYDSFDSALRNAPFMVEARALSVETVDSKVLNLAREDIVWHSVSELITDVPDQEMLGLNIVEFAGDDEALIDERVNALCARLDELIASHQAGVIGWQVCRELAGVERIYAMRKKAVGLLGNAKGAAKPIPFAEDTCVPPEHLADYIAEFRALLDSHGLSYGMFGHVDAGVLHVRPALDMCDPQQEILMKQISDDVVALTAKYGGLLWGEHGKGFRAEYSPAFFGEELFAELRKVKAAFDPHNRLNPGKICPPEGLDAPMMKVDAVKRGTFDRQIPIAVRQQWRGAMECNGNGLCFNFDARSPMCPSMKITQNRIHSPKGRATLVREWLRLLADRGVDPLKLEQELPESGVSLRTLIARTRNSWHANKGEYDFSHEVKEAMSGCLACKACSTQCPIKIDVPEFRSRFLQLYHTRYLRPLRDHLVATVESYAPLMARAPKTFNFFINQPLVRKLSEKHIGMVDLPLLSVPSLQQQMVGHRSANMTLEQLESLNAEQKARTVLVVQDPFTSYYDAQVVADFVRLVEKLGFQPVLLPFSPNGKAQHIKGFLNRFAKTAKKTADFLNRMAKLGMPMVGVDPALVLCYRDEYKLALGEERGEFNVLLANEWLASALESQPVATVSGESWYFFGHCTEVTALPGAPAQWAAIFARFGAKLENVSVGCCGMAGTYGHEAKNHENSLGIYELSWHQAMQRLPRNRCLATGYSCRSQVKRVEGTGVRHPVQALLEIIK,5.92 ± 0.38,6.06 ± 0.28,6.07 ± 0.22,5.58 ± 0.1,2.92 ± 0.41,5.76 ± 0.42,11.1 ± 0.65,5.75 ± 0.096,12.3 ± 0.23,5.88 ± 0.11,11.6 ± 0.3,5.93 ± 0.31
MKLIPRSSDISPGIDGICPGPFPPNGFTVLTDAAYGNGDCFGLYWPIGQEHKLPIVCETYHDEWRIVPAFSSIKKFEEWLEVNDDDPHENGISIEDQDFAANLFRVARKCLSTGRLDDALPLLQRATEQLPEVSEYWLALAIQYRRCKKTEAAAQAALNAYLGNWAFGVPDNKVIHLLSQAADVPNFQDDPVIQCIKEQGLDLSFGGTKENNNYPLMQMCVDTYFAQRKPLQALTLLHNYAWIMSSETTAFQERYDFNIDEWRAKFRQLCLEYFGDSRTQFT,,3.01,,3.03 ± 0.077,2.62 ± 0.22,4.63 ± 0.52,8.76,3.47 ± 0.64,5.75 ± 0.36,,9.99,3.49
MSEQLVTPENVTTKDGKINLLDLNRQQMREFFKDLGEKPFRADQVMKWMYHYCCDNFDEMTDINKVLRGKLKEVAEIRAPEVVEEQRSSDGTIKWAIAVGDQRVETVYIPEDDRATLCVSSQVGCALECKFCSTAQQGFNRNLRVSEIIGQVWRAAKIVGAAKVTGQRPITNVVMMGMGEPLLNLNNVVPAMEIMLDDFGFGLSKRRVTLSTSGVVPALDKLGDMIDVALAISLHAPNDEIRDEIVPINKKYNIETFLAAVRRYLEKSNANQGRVTIEYVMLDHVNDGTEHAHQLAELLKDTPCKINLIPWNPFPGAPYGRSSNSRIDRFSKVLMSYGFTTIVRKTRGDDIDAACGQLAGDVIDRTKRTLRKRMQGEAIDIKAV,2.76 ± 0.77,1.13 ± 0.07,1.57 ± 0.14,1.15 ± 0.025,1.35 ± 0.022,1.89 ± 0.12,2.442 ± 0.024,1.31 ± 0.027,1.88 ± 0.24,1.78 ± 0.32,2.3 ± 0.26,4.37 ± 0.19
MKTFSDRWRQLDWDDIRLRINGKTAADVERALNASQLTRDDMMALLSPAASGYLEQLAQRAQRLTRQRFGNTVSFYVPLYLSNLCANDCTYCGFSMSNRIKRKTLDEADIARESAAIREMGFEHLLLVTGEHQAKVGMDYFRRHLPALREQFSSLQMEVQPLAETEYAELKQLGLDGVMVYQETYHEATYARHHLKGKKQDFFWRLETPDRLGRAGIDKIGLGALIGLSDNWRVDSYMVAEHLLWLQQHYWQSRYSVSFPRLRPCTGGIEPASIMDERQLVQTICAFRLLAPEIELSLSTRESPWFRDRVIPLAINNVSAFSKTQPGGYADNHPELEQFSPHDDRRPEAVAAALTAQGLQPVWKDWDSYLGRASQRL,0.761 ± 0.12,0.71 ± 0.041,1.45 ± 0.13,0.7458 ± 0.0057,0.948 ± 0.075,1.02 ± 0.03,0.988 ± 0.12,0.86 ± 0.0097,1.08 ± 0.084,1.09 ± 0.25,1.93 ± 0.64,4.35 ± 0.4
